The source of these data is paper PMC4221194.

What all share (experiment): SEC; Superdex 75 10/300 GL column, after Ni-NTA purification; absorbance at 280 nm; proteins eluted at about 80 kDa
For orientation: SEC sorts molecules by how far they enter the pores of the column.

Test [1] concerns the target D22G-Angiogenin-GST (human Angiogenin D22G fused to GST, with a C-terminal hexa-histidine tag) (human) (UniProt P03950).
Test [2] has as its target L35P-Angiogenin-GST (human Angiogenin L35P fused to GST, with a C-terminal hexa-histidine tag) (human) (UniProt P03950).
For test [3], the target named is wild-type Angiogenin-GST (human Angiogenin fused to GST, with a C-terminal hexa-histidine tag) (human) (UniProt P03950).

A word on the stoichiometry N: it is a count of units in the complex or per binding partner. As to “D22G-Angiogenin-GST (human Angiogenin D22G fused to GST, with a C-terminal hexa-histidine tag) (from UniProt P03950 25-147) (enzyme)”, the stoichiometry N in test [1] was 2.

“L35P-Angiogenin-GST (human Angiogenin L35P fused to GST, with a C-terminal hexa-histidine tag) (from UniProt P03950 25-147) (enzyme)”: in test [2], the stoichiometry N was determined as 2. As to “wild-type Angiogenin-GST (human Angiogenin fused to GST, with a C-terminal hexa-histidine tag) (from UniProt P03950 25-147) (enzyme)”, the stoichiometry N in test [3] worked out at 2.
